# The DeepSol protein solubility set
# Test: soluble on expression in E. coli; label from the status in PepcDB or PDB records
row,Sequence,soluble on expression in E. coli
1,MSLGNYNSQYENYYRNLQNRSIRTSSYYKSSGFNRKNLGEKIIKKIEFQLIGTLVLFLAVFSLREVITPETKAACNYIKYTVSYNYDYSQILSYIEGFNLNDVETYASKIDMDSLKNQSVDYIENLKARVTGEKTFGAKIKQEYCLPINGKIASHFKQKDKDVLGNQYLNNGVDIKANSDLDVKAIYDGTVEKVGEDKDFGKYVMVDNGDGVESKYSNMDSFEVQRGDGVTKGEVLGKVKKNDDASKSYLHFEIMYMGENQDPENYFTFKEGHHHHHH,not soluble
2,GPGSMRNYNNFNRVWKAPRRPFEKERLDREMKLCGQYGLRCKREIWRVNMTLSKMRRTARLLLTLPENHPRRLLEGSAIMRRCHEYGFLDEEKDKLDYVLSLTVPDILERRLQTIVFKAGLAKSVHHARVLIQQRHIAVAKQIVTIPSFIVRVSSERHIAFADASPFGNGRAGRVKRVRAKAAKRHAGGGDDDE,not soluble
3,MGSDKIHHHHHHMTNIEVEINDNYICVYERLNDDCIRLLHMYGKNPVCVVPDMLDGMRVTELAEYCFSFKSMPEKLKTELGIDDILRPDMTELCDDYIERVILPDGMKKIGRLCFYNCSRLTMLELPSDICDVDGDAFMNCTKLYMLVMRGSPKDKSCLKQILSQISTLVRVRWADSDGNAIAQACFFEYDQTYDEIGPAHIFKLNMNGEGFRARQAFMDRVFVWKQYDEIFSEAIAQESEDDLLDMAFYRLIYAYELSKEARQQFLEYIVNHKKRLSELIIRKRDSGLLQSFLELKDGEENFIADVLAVTDMLALAAQDEWSEGSVILHRFKKENLSVSRKRRFEF,not soluble
4,MASALRPPRVPKPKGVLPSHYYESFLEKKGPCDRDYKKFWAGLQGLTIYFYNSNRDFQHVEKLNLGAFEKLTDEIPWGSSRDPGTHFSLILRNQEIKFKVETLECREMWKGFILTVVELRVPTDLTLLPGHLYMMSEVLAKEEARRALETPSCFLKVSRLEAQLLLERYPECGNLLLRPSGDGADGVSVTTRQMHNGTHVVRHYKVKREGPKYVIDVEQPFSCTSLDAVVNYFVSHTKKALVPFLLDEDYEKVLGYVEADKENGENVWVAPSAPGPGPAPCTGGPKPLSPASSQDKLPPLPPLPNQEENYVTPIGDGPAVDYENQDVASSSWPVILKPKKLPKPPAKLPKPPVGPKPEPKVFNGGLGRKLPVSSAQPLFPTAGLADMTAELQKKLEKRRALEH,soluble
5,MSLQTIEEMDAYPAVDDSGDHLLDPNMIPTAATEVVMSGDGIERQFGDEEDTYQYEYTYEDDPQLEIGEEEVVVTDEAEYQEHWKDEEK,not soluble
6,MGSDKIHHHHHHMDFYTIQFDDLANFESAGIFVNNKKWKHSHRILSSFEIIVMIEGVLPIQVSNTQYRVKPNKLLIIPPSAEHFGFEFTTSDIKFIWIHFNCSKFKINDEKSLFLSNIENSSIILPNYSNKLDVQRIILMSNHLLDITQENVNSIYLNLFLNSTLHEINYQTQKILKERQLSNLYLQPVREFIRINCFEDIDLGSIATHFNYNKSYLSRKYKKVMGIGIKQQINKFRISRAEYLLSNTSLTVQEISSQIGFNDEKYFMRLFRKNTNSTPSEYRKLYSQRHFNKE,not soluble
7,GKPFSYGASFNLTFARNRYLRYPDSPNTVEWRKRTGRSVDASVVWVAEGLFRSEEEIDNSAWYGTRPNVGDIKYKDLNGDGKIDEDDRTRVGRGNRPELTYGLNLNCAWNGFDLSAQFTGGALFDVSLTGTYYNGYDDNTVWTQAFKEGANSPLYLVQNAYTTENPNGTFPRLTLGNQGHGGDNGLASTFWLRNGRYLRLKSAQLGYTFPKKWMSPVGIQNLRIYVEGSNLFTISGLPDGIDPESPGVNNGYYPQQRTIMGGITLTF,not soluble
8,MGSDKIHHHHHHMTSPSPDQVIRQEILALSAYHVPPAKDMVKLDAMENPYRLPPFLCEEISRIAADTSINRYPDPHAAALKEVLSTTLSVPAGMEIMLGNGSDEIIQIIMLAAAKPEAKLLTIEPGFAMFKMIATFANMQYIGIPLKPDFSLDIDRMLAAIERHQPSVIFLAYPNNPSGNLFDTSALEKIIEISPGLVVIDEAYHPFAGKSFIGRLADYPNLLVMRTLSKLGLAGLRLGLLAGRPEWLSHLEKLRLPYNVNVITQLVATKIMQHYDVLQQQADAIRQTRTRLRTFLENLNGIEVFPSNANFILFRLDGASQIFRLLQQHGILVKNLDNSHPLLKNCLRVTVGTPEENDRFCNTLQDLIAGN,not soluble
9,AELTCTDVSGLTAEEIQMRESLQYTDHSPYPDKTCANCQLYVPAESPDQCGGCQLIKGPIHPNGYCTSWVQKAT,soluble
10,TDVDAFTLGEDLAYTPGDVIYQNDLIQLIQYKASTKKVNEVPLLFIPPFINKYYVLDMDEQKSLIKWAVGQGHTVFVISWINPDKTLSHKGFNDYMKEGPIASLDVIEELTKSKKVNVVGYCIGGTLLATTQSYLLAKGDTRINSLTFLTTLLDFEEPGEIGVYLSEKMLPFLKKDIKEKGLLDGRVLGLAFSMLRENSLFWSYFVNNYLKGKDPAPFDILYWNSDSSNLPAETFDFYMTNTYQENNLIKDGAVEVEGVPIELSKIDTPSYFLATIADHIVLWQASYKGAKALSGPTRFVLAGSGHL,not soluble
11,MLLTPAKTTRTEDSANSTDDSSKSSNSFMRAIVSSLMVKPITSLTNTVTCRQSSHHNSSPSKITRYDLIKAAAENDLKRSKSQGREKSRRNSNRRNNEEIFVANTASEIQRTKSSI,soluble
12,MSLTDNSKIRVVVGMSGGVDSSVTALLLKEQGYDVIGVFMKNWDDTDEFGVCTATEDYKDVAAVADKIGIPYYSVNFEKEYWDRVFEYFLAEYRAGRTPNPDVMCNKEIKFKAFLDYAMTLGADYVATGHYAQVKRDENGTVHMLRGADNGKDQTYFLSQLSQEQLQKTLFPLGHLQKSEVREIAERAGLATAKKKDSTGICFIGEKNFKQFLSQYLPAQKGRMMTIDGRDMGEHAGLMYYTIGQRGGLGIGGQHGGDNQPWFVVGKDLSQNILYVGQGFYHEALMSNSLDASVIHFTREMPEEFTFECTAKFRYRQPDSHVAVHVRGDKAEVVFAEPQRAITPGQAVVFYDGKECLGGGMIDMAYKNGQPCQYIEGHHHHHH,soluble
13,MSVITPTSSIAANDHRAQFLGLLDTSLSQNSLIKLVLAKYVGSEADLQRIIIKPLTVKEQPCLSFVYRYKTRDITKNFPLAEAVAVIASLIPESFKNAHLLSLSDEVQLEYSKKGKTTLFKSKAQQEREAPSAGHDREKKRYLELSRPFLADLGVTNRQHELIPAMSRKWKQINKFIEVFSHALSSSSLKLDQPIKVADFGSGKGYLTFAIHDYLCNTLQAQGQVTGVELREDMVTLCNNAAAGLEHPGLTFQHGDVRSVAPRALDVMIALHACDIATDYAIHMGIRSGASIIMCSPCCHKQIRLQIQSPSLLKPMLQYGLHMGQQAEMVTDSLRALLLDACGYETKVFEFISLEHTNKNKMILAVKRAEPANPAQLLVRIQELKAFYGISEQCLETLLQADGFLG,not soluble
14,SMRYRQITIPRGKDGFGFTICCDSPVRVQAVDSGGPAERAGLQQLDTVLQLNERPVEHWKCVELAHEIRSCPSEIILLVWRMVPQVKPGPD,soluble
15,MGSDKIHHHHHHVKEVKPKEDRVVLTKDQEKSLQIFCEWLEAPYSFKPFVMKGFAGSGKTYLSMKLLKKVDQLGLCWTVVAPTHKAVGVLREGLKNESIQPTWFPSTIHRLLRLKLKRQADIEICEKTDQTESSLENLGLVLIDEASMIDSKLLEITLECARCNSTRLVFVGDPAQLPPVGESTSSVFLMKRAVNTELREVVRHQGPVLKLAKVIRDGQIPCMQPPLVKVINSKKGNVGILDRTSWLERAKLALRLSSLEDDHDRARILCYTNRIVDNLVPHARRAIHGEMADQYQVLPGEVLISRKAVMVNASLNVDELGEEPDILISSNREMVVEDVIPNSFDLASLGIHQDFENPLPVIETQVAKVNCDQKEFSLRLMPQIGSKARKDLDLSLNELSNLARERGRKNSASTWKLFFFIRDSFASLGPASVLTIHRSQGSTFGEVFITSDAFWPKDLEFRRRLVYVAVSRASKGVWIVGDNKSKMNQALLEKLLMD,not soluble
16,MGSDKIHHHHHHMHVIVKNRYTQEIIHFFLENCRTESLRRSSIYAADFLYGKDQGFFIELRERISNYLDRNVDRISIEIASETGKPFKYIREEILQTIREIKSIRIPEDLHEFVKPGVSALNYNCNDPVLSLFVPLFATILQGSPVLVFANPYNFVSAHIIISMLSEIGLPEGVVNVIPFKPNFNYAYLYGENFSYFQDTYDGLGINRIIQSERHKPATVLWGDIDPDSAVSEFTKRLVRMPFSNEQLLVVDRRMFEYVLNRLKEELSRIVVGDPADGATDLGPVTKDEDLMEALSIVGKYRVERLLAMFRGVEGNLMKPAIILTDDVVKDPFVHAPLVYLVNSASVEDAVNLINEVEADRCALFSDDSKLLKMLYGRTACKEISFNSYMYKDYLFKPFLVKRKILM,not soluble
17,MGSDKIHHHHHHMGKFDQITYFIAVVEEHGFAAAARKFGVSTAAVSRQIARLEAELKAELLVRTTRKLSLTDIGARYYQQCKKTLLELNEAEIAIANSRNEAVGILNVTSSRYFAMRFLLPYLPEFMELNPKLQIKIELAERFPDLAQENVDVLFGVSMEGPPELVRKRVSTTRYVLCASPDYLAKNGIPKTPSELGKHRYITHSMRNPDNLVTFKDNEQIYVEPVLWLNDSRALCECALLGMGIIKLHEYIVTEALQDGRLIEVLPEFQESSLSVYLYYQASRYLQPKIRRFIDFFTK,not soluble
18,MPLLDLLRPVSDEELRVLSERNPGWQFERLADGRLIVSPTGGESGRIRAAVLGPLYRWNEARGLGVVFDASTGFKLPDGSVLAPDAAFLLGKRWQALSQEAREGFPPLAPDAVFEVRSRSQGLEELREKAAWYLANGVRLVVLLDPYLHRVEVFRPGGVEGHQGPERVPLDPGLPGFALETRGLFLP,soluble
19,MAHHHHHHMTAALNRKFDLLQKSGTCPSYLLDVLTLLVAHANETELFKQELRSAPFENAAPPLRADRGMVAAAAPQPEMGTQTVTQPEAPGTEKEVLLAAERTLRAYASDLRKINDIAMATSSKKLREMKMSNFTEMAAFRDRVVSDAVDRAREELELLRMGWLESMNTEVERAKMEVHKVGLSSQKALHKMLEGYRDYVSDGFRLLKTEPLEVMHRAMAECAFCVERLKIMEQQVVPRIEIDALCGRLKSVERVIAQMLKKRHSSGVVDDEISVVPTAGPSETGASTAAAGDDRPLGLRLRDGGNDVEGLIVTEVAPNSLASKARISPGQIISHVGDALVTRRDDFTTAMQKTGSAAKLTIYDPETAVVRILTLKP,soluble
20,MALPESESARTEQALGRLVGSLCVVTAQQGELSSAMLASWVSQATFSPPGLTVAVAKERAIESLLHKNSCFVLNILQEGNHLGLMKHFLKPFAPGGDRFADVATETAENGAPILTESLAYLECRVQQRLECGDHWVLYAVTDRGALLKDGVTAVHHRKSGDHYLEHHHHHH,not soluble
21,MSAAQYARLVPKKYRSKTLPKIDRPWRPRVIAWAGPAAFYPNRFYEVDKWYKARIDKPEKLPEMHIIEPAEHMKSLKVLMQKSEIEQINIGFKRREVAGKAEKSAEDRIELERKSRHMQLKIDIDHLDVENLSIYRHFQVFDHLFGDNIFFENVQNLQVNFENDIVVHSGNVITANSTLKRPEITIESVGNGGGFNTLLMINLDGNALDLGKNGEIVQWMISNIPDGEAISAGSEIIDYLQPLPFYGTGYHRVAFVLFRHEKPVDFQIQGNSLDTRIHEISKFYKKHEATITPSAIRFFQTSYDNSVKMALHGLGMTSPLYEYEHRPALKPAQREFPEKPQPFDLYLDMYRDPKEVEQEMLEKRLAEVKLDYVKEPKWVDTDYVENKKKLPAWLHAKKLERDGVGHAKYHNDL,not soluble
22,KIKRMECFDISHTMGNQTVASCVVFNKEGPLKSDYRRFNIEGITGGDDYAAMEQVLQKRYERDLEEDKIPDIIFIDGGKGQLNRALNVFQHLQVKWDKNRPHLIGVAKGVDRRAGQEVLIISKQDREIHLPDDSLALHLIQHIRDESHNHAISGHRKKRQKAF,not soluble
